Results on 14 molecules are retold here after US20130309252A1 (UNIVERSITE DE LA MEDITERRANEE AIX MARSEILLE II, published 2013).

B1: biotinylated JAM-C control peptide ΔPDZbm, lacking the last three amino-acids (peptide)
peptide: NYIRTSEEGDFRHKSS
modifications: also: biotinylated (position not given here)
notes: also called JAM-CΔ
B2: JAM-B cytoplasmic C-terminal construct, yeast two-hybrid (other)
chain: TCYAQRKGYFSKETSFQKGSPASKVTTMSENDFKHTKSFII
notes: not shown: Gal4 domain of the two-hybrid vector
B3: JAM-B ΔPDZbm, yeast two-hybrid construct lacking the last three amino-acids (other)
chain: TCYAQRKGYFSKETSFQKGSPASKVTTMSENDFKHTKS
notes: End at 295 worked out from 'deletion of the last three amino-acids' of 258-298; not shown: Gal4 domain of the two-hybrid vector
B4: JAM-C cytoplasmic C-terminal construct, yeast two-hybrid (other)
chain: ICCAYRRGCFISSKQDGESYKSPGKHDGVNYIRTSEEGDFRHKSSFVI
notes: also called JAM-C C-terminal region; not shown: Gal4 domain of the two-hybrid vector
B5: JAM-A ΔPDZbm, yeast two-hybrid construct lacking the last three amino-acids (other)
chain: AYSRGYFETTKKGTAPGKKVIYSQPSTRSEGEFKQTS
notes: End at 296 worked out from 'deletion of the last three amino-acids' of 260-299; not shown: Gal4 domain of the two-hybrid vector
B6: JAM-C ΔPDZbm, yeast two-hybrid construct lacking the last three amino-acids (other)
chain: ICCAYRRGCFISSKQDGESYKSPGKHDGVNYIRTSEEGDFRHKSS
notes: End at 307 worked out from 'deletion of the last three amino-acids' of 263-310; not shown: Gal4 domain of the two-hybrid vector
B7: ADAM10 C-terminal sequence, yeast two-hybrid construct (other)
chain: FIKICSVHTPSSNPKLPPPKPLPGTLKRRRPPQPIQQPPRQRPREYQMGHMRR
notes: as for B2
B8: ADAM17 C-terminal sequence, yeast two-hybrid construct (other)
chain: CVDKKLDKQYESLSLFHHSNIEMLSSMDSASVRIIKPFPAPQTPGRLQALQPAAMMPPVSAAPKLDHQRMDTIQEDPSTDSHVDDDGFEKDPFPNSSTAAKSFEDLTDHPVTRSEKAASFKLQRQSRVDSKETEC
notes: as for B2
B9: biotinylated JAM-B control peptide, last 19 amino-acids deleted of the last three amino-acids (peptide)
peptide: SKVTTMSENDFKHTKS
modifications: also: biotinylated (position not given here)
notes: also called JAM-BΔ
B10: JAM-C, endogenous mouse protein immunoprecipitated with rat mAb 19H36 (receptor)
chain: EAVNLKSSNRNPVVHEFESVELSCIITDSQTSDPRIEWKKIQDGQTTYVYFDNKIQGDLAGRTDVFGKTSLRIWNVTRSDSAIYRCEVVALNDRKEVDEITIELIVQVKPVTPVCRIPAAVPVGKTATLQCQESEGYPRPHYSWYRNDVPLPTDSRANPRFQNSSFHVNSETGTLVFNAVHKDDSGQYYCIASNDAGAARCEGQDMEVYDLNIAGIIGGVLVVLIVLAVITMGICCAYRRGCFISSKQDGESYKSPGKHDGVNYIRTSEEGDFRHKSSFVI
notes: also called junctional adhesion molecule C
B11: JAM-B, endogenous mouse protein immunoprecipitated with rat mAb JB4 (receptor)
chain: FSASKDHRQEVTVIEFQEAILACKTPKKTTSSRLEWKKVGQGVSLVYYQQALQGDFKDRAEMIDFNIRIKNVTRSDAGEYRCEVSAPTEQGQNLQEDKVMLEVLVAPAVPACEVPTSVMTGSVVELRCQDKEGNPAPEYIWFKDGTSLLGNPKGGTHNNSSYTMNTKSGILQFNMISKMDSGEYYCEARNSVGHRRCPGKRMQVDVLNISGIIATVVVVAFVISVCGLGTCYAQRKGYFSKETSFQKGSPASKVTTMSENDFKHTKSFII
notes: also called junctional adhesion molecule B
B12: JAM-A, endogenous mouse protein immunoprecipitated with rat mAb H202 (receptor)
chain: KGSVYTAQSDVQVPENESIKLTCTYSGFSSPRVEWKFVQGSTTALVCYNSQITAPYADRVTFSSSGITFSSVTRKDNGEYTCMVSEEGGQNYGEVSIHLTVLVPPSKPTISVPSSVTIGNRAVLTCSEHDGSPPSEYSWFKDGISMLTADAKKTRAFMNSSFTIDPKSGDLIFDPVTAFDSGEYYCQAQNGYGTAMRSEAAHMDAVELNVGGIVAAVLVTLILLGLLIFGVWFAYSRGYFETTKKGTAPGKKVIYSQPSTRSEGEFKQTSSFLV
notes: also called junctional adhesion molecule A
B13: non-biotinylated (unlabelled) JAM-C peptide (peptide)
peptide: NYIRTSEEGDFRHKSSFVI
notes: also called JAM-C unlabelled peptide
B14: biotinylated peptide corresponding to the last 19 amino-acids of JAM-C (peptide)
peptide: NYIRTSEEGDFRHKSSFVI
modifications: also: biotinylated (position not given here)
notes: also called JAM-C peptide; biotinylated JAM-C

Where no end group is shown, it is not given here.

One experiment deals with T1, Grasp55 (Golgi reassembly-stacking protein of 55 kDa), endogenous mouse protein in cell lysates (murine, UniProt Q99JX3 2-451, limits assumed).
T1 construct: Endogenous protein detected by mass spectrometry or anti-GRASP55 blot
The experiment in a line: peptide pull-down of cell lysates, anti-GRASP55 blot. The source says:
(§1) Total cell lysates were used as controls. Proteins were then resolved on SDS-PAGE and blotted with anti-GRASP55 antibody. Arrows indicate the signal corresponding to Grasp55.
Consider B1, for which the binding result is recorded as “no binding”.

A further experiment has as its target T2, Grasp55 FL, yeast two-hybrid construct (murine, UniProt Q99JX3 1-451).
T2 construct: Gal4 fusion expressed in yeast AH109; also called wt Grasp55
Nature of the experiment: yeast two-hybrid, growth on selective medium. The source says: (§2) The different GRASP55 constructs were cloned into pGBT9 GW vector (Ga14 DNA-binding domain fusion vector, Trp) as well in the pACT2 GW vector (Gal4 DNA-activation domain fusion vector, Leu) using the Gateway technology (Invitrogen). Plasmids were then co-transformed in AH109 yeast strain (/MATa, trp1-901, leu2-3, 112, ura3-52, his3-200, gal4/A, /gal80/A, /LYS2::GAL1//UAS//-GAL1//TATA//-HIS3, GAL2//UAS//-GAL2//TATA//-ADE2, URA3::MEL1//UAS//-MEL1//TATA//-lacZ, MEL1/) in accordance with the previously described transformation protocol (Chien et al. 1991. Proc Natl Acad Sci USA. 88:9578-82). Following co-transformation with the two vectors containing the different constructs (as well as the empty vector to test self activation), yeasts were plated onto Synthetic Complete (SC) medium minus Leucine (−L), minus Tryptophan (−W), minus Histidine (−H) and incubated at 30° C. for 4 to 5 days. All yeast media were prepared as previously described.
(§3) GST fusion proteins were produced and yeast two-hybrid assay was performed as previously described in example 1.
For the molecule B2, the binding result is listed as “binds”.
B3: the binding result was “no binding”.
With B4, the binding result is “binds”.
On to B5, for which the binding result was “no binding”.
For the molecule B6, the binding result was “no binding”.

For the next experiment, the target named is T3, Grasp55 PDZI (1-79), yeast two-hybrid construct (murine, UniProt Q99JX3 1-79).
T3 construct: also called isolated first PDZ domain
The experiment in a line: yeast two-hybrid, growth on selective medium.
Text: as §2, §3
Take B2: the binding result is listed as “no binding”.
Same read-out and setting: for B3 the value was “no binding”; for B4, “no binding”; for B5, “no binding”.
B7: the binding result is given as “no binding”.
On the same count and under the same terms, for B8 the value was “no binding”; for B6, “no binding”.

The next experiment deals with Grasp55 PDZII′ (108-208), yeast two-hybrid construct (murine, UniProt Q99JX3 108-208). Nature of the experiment: yeast two-hybrid, growth on selective medium.
Text: as §2, §3
On to B4, for which the binding result is listed as “no binding”.
Regarding B7, the binding result is given as “no binding”.
On to B8, for which the binding result is “no binding”.
For B6, the binding result was “no binding”.

The target in a further experiment is T4, Grasp55 PDZII (80-160), yeast two-hybrid construct (murine, UniProt Q99JX3 80-160).
T4 construct: also called isolated second PDZ domain
Nature of the experiment: yeast two-hybrid, growth on selective medium.
Text: as §2, §3
Turning to B2, the binding result was “no binding”.
As to B3, the binding result is given as “no binding”.
With B4, the binding result is on record as “no binding”.
With B5, the binding result was “no binding”.
With B8, the binding result is given as “binds”.
On to B6, for which the binding result is reported as “no binding”.

For the next experiment, the target named is Grasp55 PDZI + II (1-160), yeast two-hybrid construct (murine, UniProt Q99JX3 1-160). Nature of the experiment: yeast two-hybrid, growth on selective medium.
Text: as §2, §3
In the case of B2, the binding result was “binds”.
As for B3, the binding result is listed as “no binding”.
Still for that read-out and setting: for B4 the value was “binds”.
With B5, the binding result was “no binding”.
For the molecule B8, the binding result is “no binding”.
Take B6: the binding result is recorded as “no binding”.

The target in a further experiment is Grasp55 PDZI′ + II′ (1-208), yeast two-hybrid construct (murine, UniProt Q99JX3 1-208). The experiment in a line: yeast two-hybrid, growth on selective medium.
Text: as §2, §3
Consider B4, for which the binding result is listed as “binds”.
Same read-out and setting: in the case of B8 it was “no binding”; in that of B6, “no binding”.

The target of a further experiment is Grasp55 PDZI′ (1-107), yeast two-hybrid construct (murine, UniProt Q99JX3 1-107). The experiment in a line: yeast two-hybrid, growth on selective medium.
Text: as §2, §3
B4: the binding result is given as “binds”.
In the case of B7, the binding result is “no binding”.
B8: the binding result is reported as “no binding”.
As to B6, the binding result is reported as “no binding”.

The next experiment deals with T1, Grasp55 (Golgi reassembly-stacking …). The experiment in a line: peptide pull-down of KLN205 lysates, mass spectrometry. The source says:
As control, the same peptides, but deleted of the last three amino-acids known as the functional PDZ binding motif of JAM family members, were used.
For the molecule B9, the binding result is “no binding”.

For the next experiment the target is unchanged. Nature of the experiment: co-immunoprecipitation, anti-GRASP55 blot. The procedure:
as §1
Protein concentration of the samples was determined according to the Bradford method.
As to B10, the binding result is on record as “binds”.
B11: the binding result is “binds”.
B12: the binding result is “binds”.

The target in a further experiment is T5, GST-PDZI′ recombinant Grasp55 protein (murine).
T5 construct: also called Grasp-GST-PDZI′; PDZI′-GST-construct
T5 sequence (chain, as listed by the source): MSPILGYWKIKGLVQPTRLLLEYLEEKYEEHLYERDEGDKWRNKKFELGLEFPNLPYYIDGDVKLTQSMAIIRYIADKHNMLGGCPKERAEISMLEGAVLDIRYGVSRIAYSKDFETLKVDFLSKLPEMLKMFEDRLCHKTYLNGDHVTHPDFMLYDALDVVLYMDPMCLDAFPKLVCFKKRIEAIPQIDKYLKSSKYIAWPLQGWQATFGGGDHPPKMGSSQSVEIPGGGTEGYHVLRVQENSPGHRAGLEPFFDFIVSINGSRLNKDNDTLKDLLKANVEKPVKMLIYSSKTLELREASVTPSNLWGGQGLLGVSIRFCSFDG
Nature of the experiment: HTRF competition against biotinylated JAM-C peptide. The procedure: (§4) In some experiments, competing peptide or chemicals were added to the incubation mix at the indicated concentration. After incubation, microtiter plates (Costar #3693) were red using PolarScan Omega (BMG Labtech) equipped for HTRF measurements. Upon excitation at 320 nm, a 620 nm fluorescence emission is produced by the donor terbium that in turn excites a 665 nm light emission by a Streptavidin-d2 (acceptor) bound to the Biotinylated interacting Peptide if the latter is interacting with the donor. The […] R ratio is obtained and a Delta F is computed as: [(Rₛₐₘₚₗₑ−RNSB)/RNSB]*100 where RNSB is the Non Specific Background signal determined in incubates where the GST-fusion protein was omitted.
On the technique in general: In TR-FRET formats the signal depends on donor and acceptor labels being close together.
As to B13, the “fold increase in EC50 against GST-PDZI′+II′ and GST-GraspFL” value came to 20 fold.

For a further experiment, the target named is T5, GST-PDZI′ recombinant Grasp55 protein. The experiment in a line: HTRF. The procedure:
as §4
As to B1, the binding result is listed as “no binding (tested: 1.9*10^-7M peptide)”.

A further experiment deals with T6, GST-PDZI′+II′ recombinant Grasp55 protein (murine).
T6 construct: also called Grasp-GST-PDZI′+II′
Nature of the experiment: HTRF. The method, then: as §4
Turning to B1, the binding result is given as “no binding (tested: 1.9*10^-7M peptide)”.

The target in another experiment is T7, GST-GRASP55 PDZ I+II (murine).
T7 construct: also called PDZ I+II of Grasp55; PDZI+II (1-160)
T7 sequence (chain, as listed by the source): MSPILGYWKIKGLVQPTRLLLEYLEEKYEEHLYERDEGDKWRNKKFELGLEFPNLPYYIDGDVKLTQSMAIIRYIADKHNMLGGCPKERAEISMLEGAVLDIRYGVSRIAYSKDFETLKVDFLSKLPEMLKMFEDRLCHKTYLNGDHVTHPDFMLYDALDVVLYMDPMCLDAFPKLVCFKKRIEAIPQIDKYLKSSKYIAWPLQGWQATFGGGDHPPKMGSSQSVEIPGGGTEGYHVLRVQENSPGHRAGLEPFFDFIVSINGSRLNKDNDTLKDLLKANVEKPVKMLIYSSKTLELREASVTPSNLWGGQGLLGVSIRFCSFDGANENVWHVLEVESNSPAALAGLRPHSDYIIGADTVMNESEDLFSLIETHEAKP
The experiment in a line: ELISA, GST fusion on glutathione plate, biotinylated peptide. The procedure: (§5) Ninety-six well plates coated with glutathione were incubated overnight with various GST fusion proteins. The plates were then washed, blocked and incubated with JAMs biotinylated peptides with or without PDZ binding motif. […] Results are expressed as Mean+/−SEM of Relative Unit of absorbance measured at 450 nm. […] One representative experiment is shown.
(§6) To set up ELISA test, various proteins of soluble GST-GRASP55 proteins were incubated on ninety-six-well plates (Nalge Nunc International) coated with glutathione. Plates were then washed and blocked with buffer containing PBS and 2% of bovine albumin for 2 hours. […] After three successive washes, streptavidin-HRP was added to reveal the various complexes, followed by a HRP substrate, tetramethylbenzidine (TMB). Absorbance (OD_{450 nm}) was determined on an ELISA POLARstar reader.
(ELISA stands for enzyme-linked immunosorbent assay.)
B1: the binding result is reported as “no binding”.

The target in a further experiment is T8, GST-GRASP55 PDZ I (murine).
T8 construct: also called PDZ I of Grasp55; PDZI (1-79)
T8 sequence (chain, as listed by the source): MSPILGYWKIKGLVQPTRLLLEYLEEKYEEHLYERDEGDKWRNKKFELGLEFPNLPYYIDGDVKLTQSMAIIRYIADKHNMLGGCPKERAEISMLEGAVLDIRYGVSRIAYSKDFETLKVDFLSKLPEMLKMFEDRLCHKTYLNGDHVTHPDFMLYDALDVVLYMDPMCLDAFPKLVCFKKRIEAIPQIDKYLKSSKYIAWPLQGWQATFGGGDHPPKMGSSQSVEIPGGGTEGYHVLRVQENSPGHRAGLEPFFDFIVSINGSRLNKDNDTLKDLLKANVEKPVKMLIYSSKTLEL
The experiment is described as above. The method, then: as §5, §6
Consider B14, for which the binding result is reported as “no binding”.
